Experimental data reported in paper PMC2668795.

Biological target: syntaxin1 (mouse (endogenous in brain synaptosomes)) (UniProt O35526)
Assay: co-IP; synaptosomes from wt, ASMko (7 months; also 1 month) or wt+Se mice, equal protein; 150 mM NaCl, 0.5% sodium deoxycholate, 1% NP40; syntaxin1 monoclonal antibody 4 h at 4°C, protein G sepharose beads overnight at 4°C; Western blot for syntaxin1, Munc18, SNAP25 and Vamp2

UniProt O35526, sequence (O35526 whole entry): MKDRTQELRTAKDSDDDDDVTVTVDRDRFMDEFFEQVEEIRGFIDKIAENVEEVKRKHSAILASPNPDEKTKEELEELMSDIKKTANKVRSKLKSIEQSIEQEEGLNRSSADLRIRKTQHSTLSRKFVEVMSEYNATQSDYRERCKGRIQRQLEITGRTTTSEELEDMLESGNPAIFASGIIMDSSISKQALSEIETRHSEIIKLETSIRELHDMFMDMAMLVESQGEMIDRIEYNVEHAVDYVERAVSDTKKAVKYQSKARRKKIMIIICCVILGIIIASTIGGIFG

Question: Which fold change of Munc18 co-precipitated with syntaxin1, ASMko versus wt synaptosomes does the source give for “Munc18 (from UniProt O08599 1-594) (natural protein)” here?
Answer: 1.9 fold
